Experimental findings from PMC8151509 (International Journal of Molecular Sciences, 2021) are described below.

Numbering of substitutions follows the chain as printed.

Conditions in all cases: both partners purified
Assay [1] deals with T1, serum-derived C1q (human, UniProt P02745 23-245); P02746 28-253; P02747 29-245, hydroxyprolines in the collagen-like region (shown as O in Figure 8A) | hydroxyprolines in the collagen-like region (shown as O in Figure 8A) | hydroxyprolines in the collagen-like region (shown as O …).
T1 construct: Complement C1q, A chain; Complement C1q, B chain; Complement C1q, C chain; 18 polypeptide chains, six A-B-C heterotrimers, 460 kDa; also called sC1q; source: purified from human serum; copies: 6 + 6 + 6
Kind of assay: SPR; LAIR-1 Ig-like domain injected at increasing concentrations (4-128, 4-256 or 3.125-400 µM) over immobilized C1q, rC1q variants, C1qCLR_nc2 variants or C1qstem_nc2 (CM5, amine coupling); 25 °C; 50 mM Tris, 150 mM NaCl, 2 mM CaCl2, 0.05% surfactant P20, pH 7.5; KD from Req versus concentration, steady-state model.

Assay [2] addresses T2, recombinant wild-type C1q (UniProt P02745 23-245; P02746 28-253; P02747 29-245).
T2 construct: Complement C1q, A chain; Complement C1q, B chain; Complement C1q, C chain; also called rC1q WT; source: recombinant, produced and purified as reported in Bally et al. [20]; copies: + +
The assay is described as above.

The target of assay [3] is T3, recombinant C1q mutant with an alanine substitution of LysA59, LysB61 and LysC58 (UniProt P02745 23-245; P02746 28-253; P02747 29-245, alanine substitution of LysA59 | alanine substitution of LysB61 | alanine …).
T3 construct: Complement C1q, A chain; Complement C1q, B chain; Complement C1q, C chain; also called rC1q ABC; source: recombinant, produced and purified as reported in Bally et al. [20]; copies: + +
Described as above.

Assay [4] has as its target T1, serum-derived C1q. Put plainly: SPR; LAIR-1 Ig-like domain (WT or mutant) injected at 10 µM over C1q or C1q fragment amine-coupled to a CM5 chip (sC1q 14,000 RU, sCLR 6000 RU, sGR 1500 RU); 25 °C; 50 mM Tris, 150 mM NaCl, 2 mM CaCl2, 0.05% surfactant P20, pH 7.5; association 180 s; mutants as percentage of the WT response at equilibrium. On the technique in general: SPR reads the build-up and loss of mass on a sensor chip optically.

Assay [5] concerns the target T1, serum-derived C1q. Put plainly: SPR; sC1q (1 nM), alone or preincubated with C1r2s2 at increasing molar ratios (1-5; 15 min at 25 °C), injected over immobilized LAIR-1 Ig-like domain (330 RU); 50 mM Tris, 150 mM NaCl, 2 mM CaCl2, 0.05% surfactant P20, pH 7.5; 25 °C; avidity effects.

T1 sequence (P02745 23-245, chain 1 of 3): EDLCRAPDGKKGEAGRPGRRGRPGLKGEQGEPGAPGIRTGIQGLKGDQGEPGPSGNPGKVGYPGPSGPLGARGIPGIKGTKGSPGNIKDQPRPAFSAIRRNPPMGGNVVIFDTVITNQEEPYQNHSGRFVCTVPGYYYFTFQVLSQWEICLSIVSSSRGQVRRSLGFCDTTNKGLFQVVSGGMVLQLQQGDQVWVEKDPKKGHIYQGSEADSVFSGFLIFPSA
T1 sequence (P02746 28-253, chain 2 of 3): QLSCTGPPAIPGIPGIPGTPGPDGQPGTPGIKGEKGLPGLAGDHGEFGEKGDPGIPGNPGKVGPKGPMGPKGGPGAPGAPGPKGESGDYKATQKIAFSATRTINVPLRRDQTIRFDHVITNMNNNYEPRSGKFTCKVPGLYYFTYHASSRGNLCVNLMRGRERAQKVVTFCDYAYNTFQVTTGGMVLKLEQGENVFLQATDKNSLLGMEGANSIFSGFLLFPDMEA
T1 sequence (P02747 29-245, chain 3 of 3): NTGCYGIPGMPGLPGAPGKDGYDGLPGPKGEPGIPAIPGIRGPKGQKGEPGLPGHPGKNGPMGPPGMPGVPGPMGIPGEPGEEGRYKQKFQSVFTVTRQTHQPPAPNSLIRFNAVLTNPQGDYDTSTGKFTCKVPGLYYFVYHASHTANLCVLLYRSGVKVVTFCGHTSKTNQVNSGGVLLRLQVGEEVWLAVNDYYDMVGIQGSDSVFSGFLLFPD
T3 sequence (P02745 other isoform, or with tags, fused parts or gaps with the stated changes, chain 1 of 3): as the sequence (P02745 23-245, chain 1 of 3) above, with K59A counted along it
T3 sequence (P02746 other isoform, or with tags, fused parts or gaps with the stated changes, chain 2 of 3): as the sequence (P02746 28-253, chain 2 of 3) above, with K61A counted along it
T3 sequence (P02747 other isoform, or with tags, fused parts or gaps with the stated changes, chain 3 of 3): as the sequence (P02747 29-245, chain 3 of 3) above, with K58A counted along it
T2 sequence (P02745 23-245, chain 1 of 3): as the sequence (P02745 23-245, chain 1 of 3) above
T2 sequence (P02746 28-253, chain 2 of 3): as the sequence (P02746 28-253, chain 2 of 3) above
T2 sequence (P02747 29-245, chain 3 of 3): as the sequence (P02747 29-245, chain 3 of 3) above

B1: LAIR-1 Ig-like domain, wild type (domain or fragment, human, UniProt Q6GTX8 22-122, looked up)
chain: QEEDLPRPSISAEPGTVIPLGSHVTFVCRGPVGVQTFRLERDSRSTYNDTEDVSQASPSESEARFRIDSVREGNAGLYRCIYYKPPKWSEQSDYLELLVKE
notes: Leukocyte associated immunoglobulin-like receptor 1 (LAIR-1; CD305), C2-type Ig-like domain, residues 22 to 122; pET28a construct; intact disulfide bond by ESI-MS; also called LAIR-1 WT; soluble LAIR-1 Ig-like domain
Regarding B1, the Kd with serum-derived C1q [1] was found to be 112 µM; in assay [2] it was 99.5 µM; in assay [3], 132 µM.

B2: LAIR-1 Ig-like domain E111K (domain or fragment, human, UniProt Q6GTX8 22-122, looked up)
chain: B1 chain with E90K
notes: LAIR-1 (CD305), C2-type Ig-like domain, residues 22 to 122
With B2, the binding result with serum-derived C1q [4] was “binds”.

B3: LAIR-1 Ig-like domain P107R (domain or fragment, human, UniProt Q6GTX8 22-122, looked up)
chain: B1 chain with P86R
notes: as for B2
Take B3: the binding result with serum-derived C1q [4] is listed as “binds”.

B4: LAIR-1 Ig-like domain I102L (domain or fragment, human, UniProt Q6GTX8 22-122, looked up)
chain: B1 chain with I81L
notes: as for B2
For the molecule B4, the binding result with serum-derived C1q [4] is reported as “binds”.

B5: LAIR-1 Ig-like domain E72K (domain or fragment, human, UniProt Q6GTX8 22-122, looked up)
chain: B1 chain with E51K
notes: as for B2
As for B5, the binding result with serum-derived C1q [4] was “binds”.

B6: recombinant C1r2s2 tetramer (C1s, C1rS637A) (complex)
chain 1: SIPIPQKLFGEVTSPLFPKPYPNNFETTTVITVPTGYRVKLVFQQFDLEPSEGCFYDYVKISADKKSLGRFCGQLGSPLGNPPGKKEFMSQGNKMLLTFHTDFSNEENGTIMFYKGFLAYYQAVDLDECASRSKSGEEDPQPQCQHLCHNYVGGYFCSCRPGYELQEDTHSCQAECSSELYTEASGYISSLEYPRSYPPDLRCNYSIRVERGLTLHLKFLEPFDIDDHQQVHCPYDQLQIYANGKNIGEFCGKQRPPDLDTSSNAVDLLFFTDESGDSRGWKLRYTTEIIKCPQPKTLDEFTIIQNLQPQYQFRDYFIATCKQGYQLIEGNQVLHSFTAVCQDDGTWHRAMPRCKIKDCGQPRNLPNGDFRYTTTMGVNTYKARIQYYCHEPYYKMQTRAGSRESEQGVYTCTAQGIWKNEQKGEKIPRCLPVCGKPVNPVEQRQRIIGGQKAKMGNFPWQVFTNIHGRGGGALLGDRWILTAAHTLYPKEHEAQSNASLDVFLGHTNVEELMKLGNHPIRRVSVHPDYRQDESYNFEGDIALLELENSVTLGPNLLPICLPDNDTFYDLGLMGYVSGFGVMEEKIAHDLRFVRLPVANPQACENWLRGKNRMDVFSQNMFCAGHPSLKQDACQGDAGGVFAVRDPNTDRWVATGIVSWGIGCSRGYGFYTKVLNYVDWIKKEMEEED
chain 2: EPTMYGEILSPNYPQAYPSEVEKSWDIEVPEGYGIHLYFTHLDIELSENCAYDSVQIISGDTEEGRLCGQRSSNNPHSPIVEEFQVPYNKLQVIFKSDFSNEERFTGFAAYYVATDINECTDFVDVPCSHFCNNFIGGYFCSCPPEYFLHDDMKNCGVNCSGDVFTALIGEIASPNYPKPYPENSRCEYQIRLEKGFQVVVTLRREDFDVEAADSAGNCLDSLVFVAGDRQFGPYCGHGFPGPLNIETKSNALDIIFQTDLTGQKKGWKLRYHGDPMPCPKEDTPNSVWEPAKAKYVFRDVVQITCLDGFEVVEGRVGATSFYSTCQSNGKWSNSKLKCQPVDCGIPESIENGKVEDPESTLFGSVIRYTCEEPYYYMENGGGGEYHCAGNGSWVNEVLGPELPKCVPVCGVPREPFEEKQRIIGGSDADIKNFPWQVFFDNPWAGGALINEYWVLTAAHVVEGNREPTMYVGSTSVQTSRLAKSKMLTPEHVFIHPGWKLLEVPEGRTNFDNDIALVRLKDPVKMGPTVSPICLPGTSSDYNLMDGDLGLISGWGRTEKRDRAVRLKAARLPVAPLRKCKEVKVEKPTADAEAYVFTPNMICAGGEKGMDSCKGDSGGAFAVQDPNDKTKFYAAGLVSWGPQCGTYGLYTRVKNYVDWIMKTMQENSTPRED
notes: Complement C1r protease; Complement C1s protease; also called C1r2s2 proteases tetramer; source: recombinant, purified according to published procedures [42]; copies: 2 + 2
Take B6: in the assay with serum-derived C1q [5], the binding result is “binds”.

For orientation: Kd means a measure of binding affinity in units of concentration.
